{"source": "the DeepSol protein solubility set"}
{"assay": "soluble on expression in E. coli; label from the status in PepcDB or PDB records"}
{"sequence": "MSENSIRLTQYSHGAGCGCKISPKVLETILHSEQAKFVDPNLLVGNETRDDAAVYDLGNGTSVISTTDFFMPIVDNPFDFGRIAATNAISDIFAMGGKPIMAIAILGWPINKLSPEIAREVTEGGRYACRQAGIALAGGHSIDAPEPIFGLAVTGIVPTERVKKNSTAQAGCKLFLTKPLGIGVLTTAEKKSLLKPEHQGLATEVMCRMNIAGASFANIEGVKAMTDVTGFGLLGHLSEMCQGAGVQARVDYDAIPKLPGVEEYIKLGAVPGGTERNFASYGHLMGEMPREVRDLLCDPQTSGGLLLAVMPEAENEVKATAAEFGIELTAIGELVPARGGRAMVEIR", "soluble on expression in E. coli": "not soluble"}
{"sequence": "MSEPKRLFFAIDLPDDARAQIIAWRAAHFASEDGRPVAAANLHLTLAFLGDVSSDKQRALAQLAGRIRQPGFTLHLDDAGQWLRSRVVWLGMRQPPRGLLQLANMLRAQAARSGCYQSPQPFHPHITLLRDASHTVAIPPPGFCWSFPVTSFALYASSYGQGRTRYAELQRWTLGE", "soluble on expression in E. coli": "not soluble"}
{"sequence": "MSEPSNNSEKVPDEVQEIRDAENTFNSIQRCTTTLKGFQKSYDELKLQRKQSLQTIRQHEADIQQLEQGIRVHTAAFQLLRRLLSEIRRPNQILQEALQARHIEIEAFDDEAERLNVLIVEERRNLVELQAARKIRKSYLIVFQKQIAQLKAENKDEEATPAQEQMTKKSLKRRRDDEDDETGPSARRAPNSVGAF", "soluble on expression in E. coli": "soluble"}
{"sequence": "MSEVEKTYCGFIAIVGRPNVGKSTLLNELLGQKISITSRKPQTTRHRIMGIHTEGPYQAIYVDTPGLHIEEKRAINRLMNRAASSSLGDVELVIFVVEGTHWTADDEMVVNKLRSLQCPVLLAINKVDNVTDKTKLLPHMQFLSQQMNFLDVVPISAEKGMNVDTIASIVRKHMPEAEHHFPEDYITDRSQRFMASEIIREKLMRFLGEELPYSVTVEIEQFVPNERGGYNIHGLILVEREGQKKMVIGNKGSKIKVIGTEARQDMERMFEAKVHLELWVKVKSGWADDERALRSLGYTDDLK", "soluble on expression in E. coli": "not soluble"}
{"sequence": "MSFVPSEVRLDHTFLEWDKEWIFQRLPKTEIQIPREFEPDIETDAIPTIARQPADPNTTWNETGLDQIQMGPTINSTKN", "soluble on expression in E. coli": "not soluble"}
{"sequence": "MSGAVPETPYHQRWLAFPDAVSSYRPLESRLAGTSRATADNRTPCTGRLGTPRVFLMATDDVSKAYSSPTFDAEALLGTVISAEDPDRVLIEPWATGVDGVILDVGSGTGRWTGHLASLGHQIEGLEPATRLVELARQTHPSVTFHHGTITDLSDSPKRWAGLLAWYSLIHMGPGELPDALVALRMAVEDGGGLLMSFFSGPSLEPMYHPVATAYRWPLPELAQALETAGFQVTSSHWDPRFPHAYLTAEASKQNLALEHHHHHH", "soluble on expression in E. coli": "not soluble"}
{"sequence": "MSGEGDTTLKAICYKPGSLQLLDQRKLPLETIYLEIRDASDGWSAIQEMVVRGAPAIAIAAALSLAVEVFNFHGFDGSASDAVAFLENKLDYLVSSRPTAVNLADAALKLKHVIAKALATATEAKSIFKAYIEASEDMLEDDVVSNKAIGNFGLSLLRQQAKNPDKLSVLTHCNTGSLATAGYGTALGVIRALHTQGILERAYCTETRPFNQGSRLTAFELVHEKIPATLIADSAAAALMKDGRVDGVIVGADRVASNGDTANKIGTYSLALCAKHHGIPFYVAAPLTSVDLSLSSGKEIVIEERSPKELMHTHGGLGERIAAPGISVWNPAFDMTPAELIAGIITEKGVITKNGNDTFDISSFAKKITGNSSR", "soluble on expression in E. coli": "soluble"}
{"sequence": "MSGGIDSTATCLMLQEQGYEIVGVTMRVWGDEPQDARELAARMGIEHYVADERIPFKETIVKNFIDEYKQGRTPNPCVMCNPLFKFRVLAEWADKLDCAYIATGHYSRLEERSGHIYIVAGDDDKKDQSYFLWRLGQDILKRCIFPLGDYTKIKVREYLAEKGYEAKSKEGESMEVCFIQGDYRDFLREQCPELDTEIGPGWFVNSEGVKLGQHKGAPYYTIGQRKGLEIALGKPAYVLKINPQKNTVMLGDAEQLQTEYMLAEQDRIVDEQELFSCENLAVRIRYRSRPIPCRVKRLEDGRLLVRFRETASAVAPGQSAVFYDGRRVLGGAFIASQRGIGLVIIENKDKL", "soluble on expression in E. coli": "not soluble"}
{"sequence": "MSGGLLIESVIPGSIASELEIEPGDRLVAVNNRPLRDIVDYNFHADGEELLLEIVKPSGEVWEVEVERDDDEALGLVFAAPEPARCGNRCVFCFVHQLPKGLRRPLYVKDEDYRLSFLYGNYVTLSNIGEEDLQRIIEQRLSPLYISVHATDPALRERLLGRKGIIPILDIMTRLAEARITMHTQAVLCPGWNDGDALRRTVADLASLYPRVASLAIVPVGLTRHRDRLPLLEPVSADYARDFIYEWLPEAQRLADAFGEPFLFLADEFFIKADAPFPPLDFYGDFPQIENGVGMIPLFMDEADRVLRRARRMKPRTLTVVTGHSPYRYLADFLARLSARTGITFQPVAIPNRLFGESVTVTGLVAGRDILSELAGRNLGDGVLIPDVMLKEGEGVFLDDLTIGALEQGLGVPVVVVPSSPAGVMEGIRALRPLEHHHHHH", "soluble on expression in E. coli": "not soluble"}
{"sequence": "MSGKISEEAMQEQAERAEYVKNIGIEYRFGCYEEKRPESCQLLGEYMEALQQNFQAAVAIFKKNCDENSYPKSCFKYGMYMLAGKVGDDASLSKMIRPMKIACDANIPQGCRYLSLVHWNGEKDRKADSEKAERYMRRACELEDGEACWLLSTWYMGNKEKFKTNAAGEAKELDRAELGSLSRDMDKSLQFAIRACEMDIPQSCANVSRMFKLGDGVPKDLDQAKKYADRAKEIMETLRSNDTNAGFTG", "soluble on expression in E. coli": "not soluble"}
{"sequence": "MSGLLNFGVPKGSLENATVELFRKAGWQISISSRSYFPGVDDDEMNCKLIRPQEMGKYVERGTIDAGIAGRDWVRENESDVVEVCEMVYSKVSRRPARWVLVVTRDSAVQKPEDLHGATISTELVGFTKRYFAERNIPVTVEFSWGAT", "soluble on expression in E. coli": "not soluble"}
{"sequence": "MSGLPCNERMDCTQCPKAVENSIHYTHNKKGFHLPPHKCETNILFFLLKGQILINSEEYAGTIINSGEFVLQAIASKVEILAMTDSEGILYTFDDPKAFCYDRYTYILKNVPPPLISEPLKIKPEIKLFLEGVASYLNADKICKELLEFKRKELYYLLAHYYTDYELSPVVHSLSQYTSSFEYFILKHHKQIKSVEEFAQLGGYSVTTFRRIFKAIFNEPAYEWMMKQRKESILYQLRYTDASISEICFGHGFESLSHFSNFCKKSFGDSPRNIRKKEKEEISPNT", "soluble on expression in E. coli": "not soluble"}
{"sequence": "MSGSNTAISRRRLLQGAGAMWLLSVSQVSLAAVSQVVAVRVWPASSYTRVTVESNRQLKYKQFALSNPERVVVDIEDVNLNSVLKGMAAQIRADDPFIKSARVGQFDPQTVRMVFELKQNVKPQLFALAPVAGFKERLVMDLYPANAQDMQDPLLALLEDYNKGDLEKQVPPAQSGPQPGKAGRDRPIVIMLDPGHGGEDSGAVGKYKTREKDVVLQIARRLRSLIEKEGNMKVYMTRNEDIFIPLQVRVAKAQKQRADLFVSIHADAFTSRQPSGSSVFALSTKGATSTAAKYLAQTQNASDLIGGVSKSGDRYVDHTMFDMVQSLTIADSLKFGKAVLNKLGKINKLHKNQVEQAGFAVLKAPDIPSILVETAFISNVEEERKLKTATFQQEVAESILAGIKAYFADGATLARRG", "soluble on expression in E. coli": "soluble"}
{"sequence": "MSGSVPFIRRLAVIGVGLIGGSLARALRTAGAVGEIIGIDRDEANLRQAAELGVVDRAAATVAEGVAGADMVFLSVPVRAMAGVVREIAPHLAAGCIVTDGGSVKAEVVAACDPLMPAGTCFVGGHPIAGTEHSGVGASFATLYQGKRCILTPAATTDRDALATVARMWEAAGSEVVLMDPEKHDRVVAAISHLPHMVAYALVNAVEGYDRFEESILRYSAGGFRDFTRIASSDPAMWRDIALMNREGVLEMMDHFAAYFGQLRSLVAAGDAEGLERFFRDSKESRDAILLEHHHHHH", "soluble on expression in E. coli": "soluble"}
{"sequence": "MSGTKASVFSTILQLMNSLAIRAVADNVRRLLEARRLSQKELAALSGVSQKSINDLLNYGGTVSKEPRLGTIEKLAKGFGIATWQLQIPGLPVDLLQGQMVSKVIENFRDAGTVGRENISRVAESEVRYSLVQNSERGAPR", "soluble on expression in E. coli": "not soluble"}
{"sequence": "MSGYACNQPQLYSQCNCPSFCSGYMQQQPQYYQSPCGYSSGCSGGSGGGYYPRRRHHKHKKPRRKFRFDSDEDEDLPPPPPRKSAKISRVHSEEQGFIEEKPRVTETTKTDSSWENEDLWEKKFVTESTHTKAEEKLDSEEFPEITSEEIEAAMRRKTTLPPRVVQPQPVAPAGGGLGGLGLGNGGLFGISSGVGVGVPGVGPIGVSSGLGIGK", "soluble on expression in E. coli": "not soluble"}
{"sequence": "MSHGSGLVRTTCSSGGALGPAQPSEGLLDRVYPLTHGALFKVAQMGYRLLVAGFQNCRGIDIY", "soluble on expression in E. coli": "not soluble"}
